The data set in a line: yeast display, Sf9 membrane polyspecificity reagent, FACS + sequencing; frameworks hold sequencing errors. Summed up:
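Nanobodies came from a synthetic yeast display library in Saccharomyces cerevisiae BJ5465, induced with galactose for 36–48 hours and stained for 1 hour at 4 °C with 10% biotinylated, detergent-solubilized Sf9 membrane reagent. Cells were enriched on streptavidin microbeads and then FACS-sorted, with low and high (top ~1%) gates set on anti-HA fluorescence for expression and streptavidin fluorescence for reagent binding. Each polyreactivity label reflects the gate a clone came from. Genes were amplified by colony PCR, sequenced by MiSeq 2 × 250 and filtered by CDR length.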
As for “QVQLVESGGGLVQAGGSLRLSCAASGFIFGTYAMGWYRQAPGKERELVAAISRSGGSTSYADSVKGRFTISRDNAKNTVYLQMNSLKPEDTAVYYCNKRLLRFPYWGYDYWGQGTQVTVSS”, the “polyreactivity (PSR sort gate)” value is “high polyreactivity”.
Consider “QVQLVESGGGLVQAGGSLRLSCAASGFIFGTYAMGWYRQAPGKERELVAAISRVGNTSYADSVKGRFTISRDNAKNTVYLQMNSLKPEDTAVYYCAADAPSWYDRQYDYWGQGTQVTVSS”, for which the “polyreactivity (PSR sort gate)” value is given as “low polyreactivity”.
For “QVQLVESGGGLVQAGGSLRLSCAASGFIFGVNAMGWYRQAPGKERDLVAAITRNGGSTYYADSVKGRFTISRDNAKNTVYLQMNSLKPEDTAVYYCAKYVRRAPSTFDVDYWGQGTQVTVSS”, the “polyreactivity (PSR sort gate)” value was “high polyreactivity”.
As to “QVQLVESGGGLVQAGGSLRLSCAASGFIFGWYGMGWDRQARGKERELVAAITWSGVRTYYADSVKGRFTISRDNAKNTVYLQMNSLKPEDTAVYYCARAGGYVGRGYKDQDGRGDYWGQGTQVTVSS”, the “polyreactivity (PSR sort gate)” value was “high polyreactivity”.
As for “QVQLVESGGGLVQAGGSLRLSCAASGFIFGYNALGWYRQAPAKERELVAAITWIGGTTYYADSVKGRFTISRDNAKNTVYLQLNSLKPEDTAVYYCARQRSFGRSSYSHRYDYWGQGNQVTVSS”, the “polyreactivity (PSR sort gate)” value is “high polyreactivity”.
With “QVQLVESGGGLVQAGGSLRLSCAASGFIFGYNAMDWYRQAPGKERELVAAITSGGSTNYADSVKGRFTISRDNAKNTVYLQMNSLKPEDTAVYYCNTVPGDFRSITDDDWGQGTQVTVSS”, the “polyreactivity (PSR sort gate)” value is listed as “low polyreactivity”.
For the sequence “QVQLVESGGGLVQAGGSLRLSCAASGFIFGYNAMGWSRQAPGKERELVAAITWSGGSTYYADSVKGRFTISRDIAKNTVYLQMNSLKPEDTAVYYCNWPGEGDYWGQGTQVTVSS”, the “polyreactivity (PSR sort gate)” value is listed as “low polyreactivity”.
For the sequence “QVQLVESGGGLVQAGGSLRLSCAASGFIFGYNAMGWYRKAPGTERELVAAITWIGGTTYYADSVKGRFTISRDNAKNTVYLQMNSLKPEDTAVYYCARQRSYGRSSYSYGYDYWGQGTQVTVSS”, the “polyreactivity (PSR sort gate)” value was “high polyreactivity”.
In the case of “QVQLVESGGGLVQAGGSLRLSCAASGFIFGYNAMGWYRQAPGKERELVAAINWSGGRTYYADSVKGRFTISRDNPKNTVYLQMNSLKPEDTAVSYCNADGSRRYNYWGQGTQVTVSS” it was “low polyreactivity”.
“QVQLVESGGGLVQAGGSLRLSCAASGFIFGYNAMGWYRQAPGKERELVAAIRAGDGSTYYADSVKGRFTISRDNAKNTVYLQMNSLKPEDTAVYYCAAAWRQSGYRYGYWGQGTQVTVAS”: the “polyreactivity (PSR sort gate)” value was “high polyreactivity”.
The result for “QVQLVESGGGLVQAGGSLRLSCAASGFIFGYNAMGWYRQAPGKERELVAAITASGGSTYYADSVKGRFTISRDNAKNTVYLQMNSLKPEDTAVYYCATVLRKNGERVNRLYYWGQGTQVTVSS” reads “high polyreactivity”; that for “QVQLVESGGGLVQAGGSLRLSCAASGFIFGYNAMGWYRQAPGKERELVAAITRGGITYYADSVKGRFTISRDNAKYTVYLQMNSLKPEDTAVYYCASDWSVVYTDYDSWGHGTQVTVSS”, “low polyreactivity”; that for “QVQLVESGGGLVQAGGSLRLSCAASGFIFGYNAMGWYRQAPGKERELVAAITWSGGSTYYADSVKGRFTISRDNAKNTVYLQMNSLKPEDTAVDYCNWPGEGDYWGQGTQVTVSS”, “low polyreactivity”.
The result for “QVQLVESGGGLVQAGGSLRLSCAASGFIFGYNAMVWYRQAPGKERELVARINSGGNTNYADSVKGRFTISRDNAKNTVYLQMNSLKPDDTAVYYCARDASNRYDYWGQGTLVTVSS” reads “low polyreactivity”.
Turning to “QVQLVESGGGLVQAGGSLRLSCAASGFIFGYYAMGWYRQAPGKERELVAAITSGGSTYYADSVKGRFTISRDNAKNTVYLQMNSLKPEDTAVYYCAAGWWYYLHMDYWGQGTQVTVSS”, the “polyreactivity (PSR sort gate)” value is “high polyreactivity”.
As to “QVQLVESGGGLVQAGGSLRLSCAASGFIFGYYAMGWYRQAPGKERELVAAMSRGGITYYADSVNGRFTISRDNAKNTVYLQMNSLKPEDTAVYYCAAPNRYSVPMYYWGQGTQVTVSS”, the “polyreactivity (PSR sort gate)” value is on record as “low polyreactivity”.
The result for “QVQLVESGGGLVQAGGSLRLSCAASGFIFGYYAMGWYRQAPGKERELVARITSSGGSTYYADSVKGRFTISRDNAKNTVYLQMNSLKPEDTAVYYCAKSPRAPRYIPYGYWGQGTQVTVSS” reads “high polyreactivity”; that for “QVQLVESGGGLVQAGGSLRLSCAASGFIFGYYTMGWYRQAPGKERELVAAISSRGGSTYYAYSVKGRFTISRDNAKNTVYLQINSLKPEDTAVYYCAKRSTYTGSWWERGYCGQGTQVTVSS”, “high polyreactivity”; that for “QVQLVESGGGLVQAGGSLRLSCAASGFIFHIYAMGWYRQAPGKERELVAVITSGGSTYYADSVKGRFTISRDNAKNTVYLQMNSLKPEDTAVYYCAARYRRSWLEYDYWGQGTQVTVSS”, “high polyreactivity”.
For the sequence “QVQLVESGGGLVQAGGSLRLSCAASGFIFHKYVMGWYRQAPGKERELVAAISRSGASTYYADSVKGRFTISRDNAKNTVYFQMNSLKPEDTAVYYCAARYRRRVIATRDYWGQGTQVTVSS”, the “polyreactivity (PSR sort gate)” value is listed as “high polyreactivity”.
On to “QVQLVESGGGLVQAGGSLRLSCAASGFIFHLYAMGWYRQAPGKERELVAVISGGGSTYYADSVKGRFTISRDNAKNTVYLQMNSLKPEDTAVYYCNVGRYYRYATGGDYWGQGTQVTVSS”, for which the “polyreactivity (PSR sort gate)” value is reported as “high polyreactivity”.
In the case of “QVQLVESGGGLVQAGGSLRLSCAASGFIFHRYAMGWYRQAPGKERELVAAITGRGSSTYYADSVKGRFTISRDNAKNTVYLQMNSLKPEDTAVYYCNAYRYQVYDTGWFGYWGQGTQVTVSS” it was “high polyreactivity”; in that of “QVQLVESGGGLVQAGGSLRLSCAASGFIFHRYVMGWSRQAPGKERELVAAISSGGSTNYADSVKGRFTISRDNAKNTVYLQMNSLKPEDTAVYYCAADGFYYRNWGRFRYYYWGQGTQVTVSS”, “low polyreactivity”.
“QVQLVESGGGLVQAGGSLRLSCAASGFIFHTYAMGWYRQAPGKERELVAAISGGTSSTYYADSVKGRFTISRDNAKNTVYLQMNSLKPEDTAVYYCAARSRRGGYPRYYYWGQGTQVTVSS”: the “polyreactivity (PSR sort gate)” value is “high polyreactivity”.
On to “QVQLVESGGGLVQAGGSLRLSCAASGFIFHVYAMGWYRQAPGKEREFVAGISWRGGRTYYADSVKGRFTISRDNAKNTVYLQLNSLKPEDTAVYYCAALGLNAGGKFDYWGQGTQVTVSS”, for which the “polyreactivity (PSR sort gate)” value is “high polyreactivity”.
The result for “QVQLVESGGGLVQAGGSLRLSCAASGFIFIANGMGWNSQAPGKERALVAAITSGGGNTYYADSVKGRFTISRDNAKNTVYLQMNSLKPEDTAVYYCNAPSYGKFDYWGQGTQVTVSS” reads “high polyreactivity”; that for “QVQLVESGGGLVQAGGSLRLSCAASGFIFIAYVMGWYRQAPGKERELVAAITRSGASTYYADSVKGRFTISRDNAKNTVYLQMNSLKPVDTAVYYCAARGAYSFYGYYYWGQGTQVTVSS”, “high polyreactivity”.
Turning to “QVQLVESGGGLVQAGGSLRLSCAASGFIFINYAMGWNRPAPGKERELVAAISSRGGSTYYADSVKGRFTISRDNAKNTVYLQMNSLKPEDTAVYYCNADQSFRIVTFDYWGQGTQVTVSS”, the “polyreactivity (PSR sort gate)” value is on record as “high polyreactivity”.
On to “QVQLVESGGGLVQAGGSLRLSCAASGFIFIRNAMGWYRQAPGKERELVAAISSGCRTYYADSVKGRFTISRDNAKNTVYLQMNSLKPEDTAVYYCATRPHRPRGHSVGQYDYWGQGTQVTVSS”, for which the “polyreactivity (PSR sort gate)” value is “high polyreactivity”.
For the sequence “QVQLVESGGGLVQAGGSLRLSCAASGFIFKDNARGWYRQATGKEREFVASITASGGSTTYADSVKGRFTISRDTAKNTVYLQMTSLKPEDTAVYYCAARVGWNKRRYDYWGQGTQVTVSS”, the “polyreactivity (PSR sort gate)” value is reported as “low polyreactivity”.
The result for “QVQLVESGGGLVQAGGSLRLSCAASGFIFKGNAMGWYRPAPGKERELVAAISSRGGSTYYADSVKGRFTISRDNAKNTVYLQMNSLKPEDTAVYYCATRVYWRNDYWGQGTQVTVSS” reads “high polyreactivity”.
As for “QVQLVESGGGLVQAGGSLRLSCAASGFIFKGYAMGWYRQAPGKERELVAAISSGGSTNYADSVKGRFTISRDNAKNTVYLQMNSLKPEDTAVYYCAAGRYIRHYWYGYWGQGTQVTVSS”, the “polyreactivity (PSR sort gate)” value was “high polyreactivity”.
For “QVQLVESGGGLVQAGGSLRLSCAASGFIFKHYAMGWYRQAPGKERELVAAITISASRTYYADSVKGRFTISRDNAKNTVYLQMNSLKPEDTAVYYCARRLLRGSDWGQGTQVTVSS”, the “polyreactivity (PSR sort gate)” value is reported as “high polyreactivity”.
The result for “QVQLVESGGGLVQAGGSLRLSCAASGFIFKIYAMGWYRQAPGKERELVAAISSGDNTNYADSVKGRFTISRDNAKNTVYLQMNSLKPEDTAVYYCAARAYRWRSFSTMYYWGQGTQVTVSS” reads “high polyreactivity”; that for “QVQLVESGGGLVQAGGSLRLSCAASGFIFKKYAMGWYRQAPGKERELVAAISWSGGNTYYADSVKGRFTISRDNAKNTVYLQMNSLKPEDTAVYYCNAAGRRYKFDYWGQGTQVTVSS”, “high polyreactivity”.
The result for “QVQLVESGGGLVQAGGSLRLSCAASGFIFKRYAMGWYRQAPGKERELVAAISTYSGGRTYYADSVKGRFTISRDNAKNSVYLQMNSLKPEDTAVYYCNARKYVGFWSRYDYWGQGTQVTVSS” reads “high polyreactivity”; that for “QVQLVESGGGLVQAGGSLRLSCAASGFIFKRYAMGWYRQAPGKERELVAAITGSGSRTYYADSVKGRFTISRDNAKNTVYLQMNSLKPEDTAVYYCNKDRRPTADFGYWGQGTQVTVSS”, “high polyreactivity”.
In the case of “QVQLVESGGGLVQAGGSLRLSCAASGFIFKRYGMGWYRQAPGKERELVAAISYSGGSTYYADSVKGRFTISRDNAKNTVYLQMNSLKPEDTAVYYCKATIHYNAGWTMGSWGQGTQVTVSS” it was “high polyreactivity”; in that of “QVQLVESGGGLVQAGGSLRLSCAASGFIFKRYTMGWYRPAPGKERELVATINWNGGNTYYADSVKGRFTISRDNAKNTVYLQMNSLKPEDTAVYYCNARYWRGQGWPGYDYWGQGTQVTVSS”, “high polyreactivity”.
Take “QVQLVESGGGLVQAGGSLRLSCAASGFIFKVYAMGWYRQAPGKERELVAAISSRGGRTNYADSVKGRFTISRDNAKNTVYLQMNSLKPEDTAVYYCATGAAGAYDYWGQGTQVTVSS”: the “polyreactivity (PSR sort gate)” value was “high polyreactivity”.
On to “QVQLVESGGGLVQAGGSLRLSCAASGFIFKYYTMGWYRPAPGNERELVAAISKNAGSTYYADSVKGRFTISRDNAKNTVYLQMNSLKPEDTAVYYCARTYSTWYYYWGQGTQVTVSS”, for which the “polyreactivity (PSR sort gate)” value is reported as “high polyreactivity”.
